Reference: patent publication US10633455B2, “Method for treating and diagnosing disease using inhibitors of goodpasture antigen binding protein” (Fibrostatin S.L., priority 2011, dated 2020)

B1: rcGPBP-1: Recombinant cGPBP-1 purified from culture media of a HEK 293 cell clone that constitutively secretes FLAG-GPBP-1 (protein)
chain: MSDNQSWNSSGSEEDPETESGPPVERCGVLSKWTNYIHGWQDRWVVLKNNALSYYKSEDETEYGCRGSICLSKAVITPHDFDECRFDISVNDSVWYLRAQDPDHRQQWIDAIEQHKTESGYGSESSLRRHGSMVSLVSGASGYSATSTSSFKKGHSLREKLAEMETFRDILCRQVDTLQKYFDACADAVSKDELQRDKVVEDDEDDFPTTRSDGDFLHSTNGNKEKLFPHVTPKGINGIDFKGEAITFKATTAGILATLSHCIELMVKREDSWQKRLDKETEKKRRTEEAYKNAMTELKKKSHFGGPDYEEGPNSLINEEEFFDAVEAALDRQDKIEEQSQSEKVRLHWPTSLPSGDAFSSVGTHRFVQKPYSRSSSMSSIDLVSASDDVHRFSSQVEEMVQNHMTYSLQDVGGDANWQLVVEEGEMKVYRREVEENGIVLDPLKATHAVKGVTGHEVCNYFWNVDVRNDWETTIENFHVVETLADNAIIIYQTHKRVWPASQRDVLYLSVIRKIPALTENDPETWIVCNFSVDHDSAPLNNRCVRAKINVAMICQTLVSPPEGNQEISRDNILCKITYVANVNPGGWAPASVLRAVAKREYPKFLKRFTSYVQEKTAGKPILF

How the values were obtained:
[1] = biological target: T1, GPBP (Homo sapiens, UniProt Q9Y5P4); test: Inhibition of autophosphorylating activity of GPBP in vitro; type: biochemical; conditions: Pretswick Chemical Library selection (not shown)
T1 sequence (Q9Y5P4 1-624): B1 chain

[2] = test system: doxorubicin-induced PF; test: Doxorubicin-induced pulmonary fibrosis in mice; type: in vivo, C57BL/6 male mice
Protocol: For induction of PF with doxorubicin (Example 3), eight to ten weeks-old C57BL/6 male mice were purchased from Harlan Ibérica (Barcelona, Spain). For intratracheal (i.t.) instillation of doxorubicin (Sigma), mice were anesthetized by intraperitoneal (i.p.) injection of ketamine (50 μg/g of body weight), atropine sulphate (0.2 μg/g) and diazepam (4 μg/g). The trachea was localized by cutaneous incision in the anterior face of the neck and immobilized with forceps. Then 75 μl of doxorubicin chlorhydrate (1 mg/ml) were injected i.t. with a 30 G needle. Skin was then sutured with 3/0 silk. Mice were fed ad libitum with a normal chow diet and bled from the retro-orbital plexus at different time points after doxorubicin i.t. instillation. […] Mice instilled i.t. with doxorubicin were daily injected i.p. with either with 0.027, 0.08, 0.25 or 1.225 mg/kg of Pinacidil or with 0.11, 0.34 or 0.95 mg/kg of Myricetin. Mice were sacrificed twelve days after doxorubicin administration for gene expression analysis and anatomopathological studies of the lungs.
In PF assays, mouse lungs were intrabronchially perfused with 4% phosphate buffered formalin, then incubated in this fixative during 24 hours and finally embedded in paraffin. Tissue sections of 5 μm were stained with HE or with Masson's trichrome following conventional methods. For immunohistochemistry, paraffin-embedded lungs were stained with anti-GPBP-pep1 antibodies (3), which was detected with anti-chicken-HPR and DAB substrate (Dako Diagnósticos, S.A., Barcelona Spain). Specimens were counterstained with hematoxylin.
In assays of experimental pulmonary fibrosis, the expression of GPBP and of collagens type I and type IV mRNAs in the lung was analyzed by real-time quantitative PCR (RT-qPCR). One μg of the isolated RNA was used for cDNA synthesis with a RT-PCR kit (Amersham Pharmacia Biotech, Piscataway, N.J.), according to the manufacturer instructions. RT-qPCR was performed on a MX-3000P Stratagene instrument (Agilent Technologies, Inc., Santa Clara, Calif.) using specific primers SYBR Green PCR Master Mix (Applied Biosystems, Life Technologies Corporation). Primers used were: for α1(I) collagen gene, 5′ primer 5′-[…]-3′ (SEQ ID NO: 12) and 3′ primer 5′-[…]-3′ (SEQ ID NO: 13); for GPBP gene, 5′ primer 5′-[…]-3′ (SEQ ID NO: 14) and 3′ primer 5′-[…]-3′(SEQ ID NO: 15); for 18S gene, 5′ primer 5′-[…]-3′ (SEQ ID NO: 16) and 3′ primer 5′-[…]-3′ (SEQ ID NO: 17). Results (in triplicate) were normalized to the ribosomal 18S subunit expression and measured in parallel in each sample. Data were expressed as mean fold change relative to control samples.

[3] = test system: A549 cells; test: mRNA expression profile / KEGG pathway analysis of A549 cells cultured with rcGPBP-1; type: cell-based, human; conditions: 200 ng/mL
Protocol: Human A549 cells were cultured with or without 200 ng/mL of rcGPBP-1 for 3 hours. Then cells were lysed and total RNA was extracted with RNeasy™ Protect mini kit (Qiagen, Valencia, Calif.) according to manufacturer's recommendations. RNA was quantified by spectrometry with a NanoDrop™ ND1000 (NanoDrop Technologies, Wilminton, Del.) and quality confirmed by RNA 6000 Nano Bioanalyzer (Agilent Technologies, Palo Alto, Calif.) assay. Briefly, 150 ng of total RNA were used to produce Cyanine 3-CTP-labeled cRNA using the Low Input Quick™ Amp Labelling Kit One-Color (Agilent) according to the manufacturer's instructions. Following ‘One-Color Microarray-Based Gene Expression Analysis’ protocol Version 6.0 (Agilent), 1600 ng of labelled cRNA were hybridized with the Whole Human Genome Oligo Microarray Kit (Agilent) containing 41000+ unique human genes and transcripts. Arrays were scanned in an Agilent Microarray Scanner according to the manufacturer's instructions and data extracted using Agilent Feature Extraction Software 10.7.1 following the Agilent protocol GE1_107_Sep09, grid template 014850_D_F_20100430 and the QC Metric Set GE1_QCMT_Sep09. Analysis was performed in the Genomics Core Service of the Centro de Investigación Príncipe Felipe (Valencia, Spain) using an Agilent Microarray Scanner (Agilent Technologies, Palo Alto, Calif.).
Raw data files were background corrected using supplier's methodology and intensity signal standardized across arrays via quantile normalization algorithm. Differential gene expression assessment of all comparisons was carried out using limma moderated t-statistics. Conventional adjustment for multiple testing proposed by Benjamini Hochberg (5) was used to derive adjusted P-values. Also, for each of the comparisons performed in the study, gene set analysis was carried out using logistic regression models, and correcting for multiple testing as before (5). All analyses where carried out using Babelomics™ (6) web suite at the Bioinformatics Department of Centro de Investigación Príncipe Felipe. Array data have been deposited in GEO (accession number GSE32181).

[4] = A549 + rcGPBP-1 vs A549, 3 hours, P. adjusted 0.1576

Molecule	autophosphorylating activity of GPBP [1]	doxorubicin-induced fibrosis (α1(I) collagen mRNA) ([2]; all doses tested (0.11, 0.34 or 0.95 mg/kg daily i.p.), day 12 (FIG. 11B))	expression of pulmonary α1(I) collagen mRNA ([2]; daily dose of 0.08 mg/kg i.p., day 12, RT-qPCR (FIG. 11A))	severity of doxorubicin-induced pulmonary fibrosis ([2]; daily dose of 0.08 mg/kg i.p., days 0-12, histology (FIG. 10))	therapeutic effect (α1(I) collagen mRNA) ([2]; higher doses, 0.25 or 1.225 mg/kg/day (FIG. 11A))	Log Odds Ratio, KEGG pathway hsa05322 SLE ([3]; A549 + rcGPBP-1 vs A549, 3 hours, P. adjusted 0.0003)	Log Odds Ratio, KEGG pathway hsa00380 Tryptophan metabolism [3, 4]	Log Odds Ratio, KEGG pathway hsa04120 Ubiquitin mediated proteolysis [3, 4]	Log Odds Ratio, KEGG pathway hsa04210 Apoptosis [3, 4]	Log Odds Ratio, KEGG pathway hsa05200 Pathways in cancer [3, 4]	Log Odds Ratio, KEGG pathway hsa05211 Renal cell carcinoma [3, 4]	Log Odds Ratio, KEGG pathway hsa05222 Small cell lung cancer [3, 4]	Log Odds Ratio, KEGG pathway hsa04510 Focal adhesion ([3]; A549 + rcGPBP-1 vs A549, 3 hours, P. adjusted 0.1579)	Log Odds Ratio, KEGG pathway hsa04914 Progesterone-mediated oocyte maturation ([3]; A549 + rcGPBP-1 vs A549, 3 hours, P. adjusted 0.1771)	Log Odds Ratio, KEGG pathway hsa05218 Melanoma ([3]; A549 + rcGPBP-1 vs A549, 3 hours, P. adjusted 0.3348)	changes in the expression of individual genes ([3]; A549 cells, microarray)
O=c1c(O)c(-c2cc(O)c(O)c(O)c2)oc2cc(O)cc(O)c12 [myricetin]	inhibit the autophosphorylating activity of GPBP in vitro	efficient reduction														
CC(N/C(=N\C#N)Nc1ccncc1)C(C)(C)C (centres unmarked) [pinacidil]	inhibit the autophosphorylating activity of GPBP in vitro		significant reduced expression	sharply reduced	lost											
B1						0.1444	−0.1522	−0.1130	−0.1307	−0.0843	−0.1355	−0.1253	−0.0969	−0.1223	−0.1196	No statistically significant changes
